These results are taken from PMC11580166, “VPS26 Moonlights as a β-Arrestin-like Adapter for a 7-Transmembrane RGS Protein in Arabidopsis thaliana” (Biochemistry, 2024).

B6: VPS26A/VPS26B heterodimer (complex, Arabidopsis thaliana)
chain 1: MNYLLGAFKPACNISITFTDGKNRKQVPTKKDNGQIVMNPLFQSQETIAGKINIEPYQGKKVEHNGVKVELLGQIEMYFDRGNFYDFTSLVREIDVPGEIYERKTYPFEFSSVEMPYETYNGVNVRLRYVLKVTVTRGYAGSIVEYQDFVVRNYVPLPPINNSIKMEVGIEDCLHIEFEYNKSKYHLKDVILGKIYFLLVRIKIKNMDLEIRRRESTGAGANTHVETETLAKFELMDGAPVRGESIPVRVFLTPYDLTPTHKNINNKFSVKYYLNLVLVDEEDRRYFKQQEITLYRLKEETS
chain 2: MNYLLGAFKPACNISITFSDGKNRKQVPMKKENGQTALVPLFHSQDTISGKVCIEPYQGKKVEHNGVKVELLGQIEMYFDRGNFYDFTSLVRELDVPGEIYERKTYPFEFPTVEMPYETYNGVNVRLRYVLKVTVTRGYAGSILEYQELVVRNYAPLPDINNSIKMEVGIEDCLHIEFEYNKSKYHLKDVILGKIYFLLVRIKMKNMDLEIRRRESTGAGANTHVETETLAKFELMDGTPVRGESIPVRLFLAPYDLTPTHRNINNKFSVKYYLNLVLVDEEDRRYFKQQEITLYRLKEDASS
notes: AtVPS26A, Arabidopsis thaliana, UniProt Q9FJD0, as m1; AtVPS26B, Arabidopsis thaliana, UniProt Q9T091, as m2; In the number-and-brightness rows the id stands for the endogenous heterodimer of the plant; also called VPS26A/B; VPS26A/B dimer; source: E. coli BL21 (DE3), each subunit purified, mixed; copies: 1 + 1
B7: Vacuolar Protein Sorting-Associated 26A (AtVPS26A) (natural protein, Arabidopsis thaliana, UniProt Q9FJD0 1-302, looked up)
chain: MNYLLGAFKPACNISITFTDGKNRKQVPTKKDNGQIVMNPLFQSQETIAGKINIEPYQGKKVEHNGVKVELLGQIEMYFDRGNFYDFTSLVREIDVPGEIYERKTYPFEFSSVEMPYETYNGVNVRLRYVLKVTVTRGYAGSIVEYQDFVVRNYVPLPPINNSIKMEVGIEDCLHIEFEYNKSKYHLKDVILGKIYFLLVRIKIKNMDLEIRRRESTGAGANTHVETETLAKFELMDGAPVRGESIPVRVFLTPYDLTPTHKNINNKFSVKYYLNLVLVDEEDRRYFKQQEITLYRLKEETS
notes: AtVPS26A, Arabidopsis thaliana, UniProt Q9FJD0, gene At5g53530; Fluorescently labelled (Monolith RED-NHS or RED-MALEIMIDE kit) when it was the labelled partner in MST; the His-SUMO tag may have been kept in mass photometry (surmise); also called AtVSP26A; source: E. coli BL21 (DE3), purified (nickel resin, ULP1 cleavage, second nickel, SEC)

Where no end group is shown, it is not given here. [ ]: non-standard residue; d: D form. pS = N[C@@H](COP(=O)(O)O)C(=O)O

Assay [1] concerns the target AtGPA1 (Arabidopsis thaliana) (UniProt P18064). The note with it: cited from earlier work.
Assay [2] deals with T1, VPS26A/VPS26B heterodimer (Arabidopsis thaliana, UniProt Q9FJD0 1-302; Q9T091 1-303).
T1 chain 1: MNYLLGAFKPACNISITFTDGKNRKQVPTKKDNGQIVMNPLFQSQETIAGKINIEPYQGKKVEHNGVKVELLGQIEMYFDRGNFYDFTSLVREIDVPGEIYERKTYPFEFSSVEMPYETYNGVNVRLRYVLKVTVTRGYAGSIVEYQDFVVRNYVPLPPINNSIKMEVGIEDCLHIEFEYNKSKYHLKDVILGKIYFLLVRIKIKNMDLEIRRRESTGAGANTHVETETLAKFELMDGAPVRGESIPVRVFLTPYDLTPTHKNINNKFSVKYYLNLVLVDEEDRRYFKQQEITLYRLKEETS
T1 chain 2: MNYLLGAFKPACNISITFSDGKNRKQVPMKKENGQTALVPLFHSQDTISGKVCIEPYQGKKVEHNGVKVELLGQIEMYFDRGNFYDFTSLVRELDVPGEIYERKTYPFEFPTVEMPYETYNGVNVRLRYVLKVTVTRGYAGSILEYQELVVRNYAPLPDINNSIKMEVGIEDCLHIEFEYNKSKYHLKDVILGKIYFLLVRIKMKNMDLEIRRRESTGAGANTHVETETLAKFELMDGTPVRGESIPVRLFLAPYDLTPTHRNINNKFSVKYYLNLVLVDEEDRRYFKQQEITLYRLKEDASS
Briefly: ITC. For orientation: In ITC the heat of successive injections is recorded.

Assay [3] concerns the target B6. The assay can be described thus: MST; 20 nM fluorescence-labelled protein (RED-NHS or RED-MALEIMIDE), ligand dilution series, 25 °C, PBS pH 7.4, 0.05% Tween-20; apparent Kd; averages of 2 to 4 experiments. Particulars: both partners purified.
For assay [4], the target named is T2, Vacuolar Protein Sorting-Associated 26B (AtVPS26B) (Arabidopsis thaliana, UniProt Q9T091 1-303).
T2 chain: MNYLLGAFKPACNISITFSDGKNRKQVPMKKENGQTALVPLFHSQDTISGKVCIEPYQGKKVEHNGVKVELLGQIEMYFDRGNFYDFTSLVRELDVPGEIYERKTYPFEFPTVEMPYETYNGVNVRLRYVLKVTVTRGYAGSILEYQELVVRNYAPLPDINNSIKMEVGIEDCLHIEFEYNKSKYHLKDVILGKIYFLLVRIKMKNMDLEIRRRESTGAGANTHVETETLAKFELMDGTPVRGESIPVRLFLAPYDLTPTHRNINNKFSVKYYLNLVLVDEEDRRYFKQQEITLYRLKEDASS
The assay can be described thus: ITC.

Assay [5] has as its target T3, Vacuolar Protein Sorting-Associated 26A (AtVPS26A) (Arabidopsis thaliana, UniProt Q9FJD0 1-302).
T3 chain: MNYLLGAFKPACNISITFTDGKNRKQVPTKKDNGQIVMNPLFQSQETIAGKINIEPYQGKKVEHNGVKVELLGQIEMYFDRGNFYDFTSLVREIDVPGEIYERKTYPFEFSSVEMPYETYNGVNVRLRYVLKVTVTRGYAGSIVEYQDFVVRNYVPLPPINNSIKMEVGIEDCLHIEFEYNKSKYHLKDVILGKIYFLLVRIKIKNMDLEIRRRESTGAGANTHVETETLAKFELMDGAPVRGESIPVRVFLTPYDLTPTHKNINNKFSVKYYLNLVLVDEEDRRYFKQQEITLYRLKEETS
Briefly: ITC.

The target in assay [6] is Vacuolar Protein Sorting-Associated 26A (AtVPS26A) (Arabidopsis thaliana) (UniProt Q9FJD0). The assay can be described thus: MST; 20 nM fluorescence-labelled protein (RED-NHS or RED-…), ligand dilution series, 25 °C, PBS pH 7.4, 0.05% Tween-20; apparent Kd; averages of 2 to 4 experiments.
Assay [7] has as its target Vacuolar Protein Sorting-Associated 26B (AtVPS26B) (Arabidopsis thaliana) (UniProt Q9T091). Described as above.
Assay [8] deals with B7. The assay can be described thus: MST; 20 nM fluorescence-labelled protein (RED-NHS or RED-MALEIMIDE), ligand dilution series, 25 °C, PBS pH 7.4, 0.05% Tween-20; apparent Kd; averages of 2 to 4 experiments. The note with it: both partners purified.
Assay [9] addresses T4, Vacuolar Protein Sorting-Associated 26B (AtVPS26B) (Arabidopsis thaliana, UniProt Q9T091 1-303).
T4 construct: AtVPS26B, Arabidopsis thaliana, UniProt Q9T091, gene At4g27690; the His-SUMO tag may have been kept in mass photometry (surmise); also called VSP26B; source: E. coli BL21 (DE3), purified (nickel resin, ULP1 cleavage, second nickel, SEC)
Described as above. The note with it: both partners purified.

The target in assay [10] is T1, VPS26A/VPS26B heterodimer. Briefly: ITC; phosphorylated S428, S431, S435.
The target of assay [11] is T2, Vacuolar Protein Sorting-Associated 26B …. The assay can be described thus: ITC; phosphorylated S428, S431, S435.
Assay [12] addresses T3, Vacuolar Protein Sorting-Associated 26A …. The assay can be described thus: ITC; phosphorylated S428, S431, S435.
The target of assay [13] is T5, Full-length AtRGS1 with a phosphorylated C-tail peptide ligated by sortase A (Arabidopsis thaliana, phosphoserine at 428, 431 and 435).
T5 chain: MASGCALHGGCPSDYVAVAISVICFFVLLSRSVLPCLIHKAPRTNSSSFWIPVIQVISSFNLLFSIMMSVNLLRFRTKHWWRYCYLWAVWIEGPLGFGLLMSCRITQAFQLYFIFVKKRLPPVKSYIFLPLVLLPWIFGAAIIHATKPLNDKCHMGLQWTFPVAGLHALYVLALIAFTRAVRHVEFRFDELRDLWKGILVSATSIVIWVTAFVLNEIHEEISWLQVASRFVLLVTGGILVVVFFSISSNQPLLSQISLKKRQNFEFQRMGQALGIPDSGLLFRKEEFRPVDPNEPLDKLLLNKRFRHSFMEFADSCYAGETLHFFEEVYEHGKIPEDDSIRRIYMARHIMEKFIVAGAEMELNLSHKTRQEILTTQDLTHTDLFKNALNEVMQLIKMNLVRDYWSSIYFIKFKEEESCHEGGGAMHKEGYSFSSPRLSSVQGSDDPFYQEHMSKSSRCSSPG
Briefly: mass photometry; purified AtRGS1 in detergent micelle (mixture of about 50% tail-ligated and truncated protein) with VPS26A/B heterodimer added. Particulars: both partners purified.

Sequence of AtGPA1 (Arabidopsis thaliana) (P18064 2-383): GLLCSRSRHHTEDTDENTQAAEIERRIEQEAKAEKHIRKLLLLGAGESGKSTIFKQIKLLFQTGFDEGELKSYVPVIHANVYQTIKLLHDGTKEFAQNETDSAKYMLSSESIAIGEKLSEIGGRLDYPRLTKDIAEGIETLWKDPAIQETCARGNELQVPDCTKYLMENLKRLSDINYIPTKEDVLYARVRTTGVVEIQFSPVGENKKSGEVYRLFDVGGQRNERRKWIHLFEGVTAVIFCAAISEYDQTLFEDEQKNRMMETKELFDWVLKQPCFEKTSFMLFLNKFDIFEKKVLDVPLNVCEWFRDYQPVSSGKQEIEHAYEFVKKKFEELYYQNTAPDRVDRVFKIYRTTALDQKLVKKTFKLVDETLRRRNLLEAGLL

For AtRGS1 (from UniProt Q8H1F2), the Kd in [1] was 125 nM.

B1: AtRGS1 truncated C tail peptide (A421-E447), unphosphorylated (peptide)
peptide: GGGAMHKEGYSFSSPRLSSVQGSDDPFYQE
notes: N-terminal GGG added to the peptide; AtRGS1 C-terminal tail, Arabidopsis thaliana, UniProt Q8H1F2, residues A421-E447; also called ΔC tail; RGS1 delta C-tail; source: synthetic peptide (Tufts University Peptide Core Facility)
Molecule B1 displayed a Kd in assay [2] of 123 nM. In assay [3], the binding result was “binds”.

B2: AtRGS1 RGS domain plus C-terminal tail (residues 284-459) (domain or fragment)
chain: KEEFRPVDPNEPLDKLLLNKRFRHSFMEFADSCYAGETLHFFEEVYEHGKIPEDDSIRRIYMARHIMEKFIVAGAEMELNLSHKTRQEILTTQDLTHTDLFKNALNEVMQLIKMNLVRDYWSSIYFIKFKEEESCHEAMHKEGYSFSSPRLSSVQGSDDPFYQEHMSKSSRCSSPG
In the case of B2, the Kd in [2] came out at 22 nM; in assay [4], 40 nM; in [5] it was 38 nM; in assay [6] it was 34 nM; in assay [7] it was 35 nM.

B3: AtRGS1 C tail peptide (A421-G459), unphosphorylated (peptide)
peptide: GGGAMHKEGYSFSSPRLSSVQGSDDPFYQEHMSKSSRCSSPG
notes: N-terminal GGG added to the peptide; AtRGS1 C-terminal tail, Arabidopsis thaliana, UniProt Q8H1F2, residues A421-G459; Purity 99%; also called unphosphorylated C-tail; source: synthetic peptide (UNC Peptide Core Facility)
Regarding B3, the Kd in assay [2] worked out at 63 nM; in [5], 317 nM; in [8], 217 nM; in assay [9], 253 nM.

B4: AtRGS1 pSer C tail peptide (A421-G459, phosphorylated at S428, S431, S435) (peptide)
peptide: GGGAMHKEGY[pS]FS[pS]PRL[pS]SVQGSDDPFYQEHMSKSSRCSSPG
notes: N-terminal GGG added to the peptide; AtRGS1 C-terminal tail, Arabidopsis thaliana, UniProt Q8H1F2, residues A421-G459; Purity 87%; also called RGS1 pC-tail; ptail; source: synthetic peptide (UNC Peptide Core Facility)
As for B4, the Kd was found to be 12 nM in assay [10], 17 nM in [11] and 71 nM in assay [12]. In assay [3], the “fold higher affinity than the unphosphorylated C-tail” value is approximately 5 fold.

B5: VPS26B Y85A/E93A mutant (natural protein, Arabidopsis thaliana, UniProt Q9T091 1-303, looked up)
chain: MNYLLGAFKPACNISITFSDGKNRKQVPMKKENGQTALVPLFHSQDTISGKVCIEPYQGKKVEHNGVKVELLGQIEMYFDRGNFADFTSLVRALDVPGEIYERKTYPFEFPTVEMPYETYNGVNVRLRYVLKVTVTRGYAGSILEYQELVVRNYAPLPDINNSIKMEVGIEDCLHIEFEYNKSKYHLKDVILGKIYFLLVRIKMKNMDLEIRRRESTGAGANTHVETETLAKFELMDGTPVRGESIPVRLFLAPYDLTPTHRNINNKFSVKYYLNLVLVDEEDRRYFKQQEITLYRLKEDASS
notes: AtVPS26B, Arabidopsis thaliana, UniProt Q9T091, with Y85A and E93A
Consider B5, for which the “fold lower heterodimerization than VPS26B wildtype” value in assay [8] is approximately 10 fold.

In the case of B6, the “stoichiometry N” value in [13] stood at 1.

Take B7: the Kd in assay [9] is approximately 18 nM.

One may read the stoichiometry N as a count of units in the complex or per binding partner.
